Here are results for 69 sequences from the domain aggregation screens of Martell et al. (2025).

The data set is described as follows: soluble fraction after stress (log2 fold change); higher = more stays soluble; pooled small domains, quantitative proteomics. Particulars: stress: pH 4. In a few lines: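 Aggregation propensity is estimated from the fold change in each domain's soluble amount after acid stress. Pooled small-domain libraries were stressed at pH 4, and higher log2 values mean more stayed soluble.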

On to “HMEELIIQEELANKRLDIAISLLFPELTRAHAQKLIKEGSVLVDGKPRKASYPLTAGKRLSVTLPEPE”, for which the “soluble fraction (log2)” value is -0.0497. With “HMEELPVLHLKHVVVEGESLWKLAEQYLNDGTRWQEIYMLNRENISNPDLIREGQELNIQFLQGE”, the “soluble fraction (log2)” value was -1.05. For “HMEENIKKDIEVPNIEGLTIDEAKKRLKEVNLNISIEDMEEKEGTEIITQQLPKAGIKVKEGVAIIAY”, the “soluble fraction (log2)” value was -0.211. Consider “HMEEPEFEPYVVRLTAIALNVRTGPGTQYPVAMVIRGGGAFTIVAEENGFGLLKSGAGWIMLQHTERV”, for which the “soluble fraction (log2)” value was -0.427. For the sequence “HMEEQELQLIQFPIASGSAWAGKAVRELILPPETLLVMLIRGTETMIPKGDTMVQEGDTAVLSASAYRDD”, the “soluble fraction (log2)” value is -1.61.

Consider “HMEEQKYEYHLGDVVYLGVDKYEILGITNNIVTLYDPEFPLLNKQLDFDEFEKRVKDNYANEHLKVT”, for which the “soluble fraction (log2)” value is -0.545. Regarding “HMEERDMKGSISDLVERYADQLTDEQLEEIVLGIKNGLLEEDVKSYFFLPAEDMRRIRTALEQVR”, the “soluble fraction (log2)” value was -1.6. With “HMEESEMIAFATVAHRIVGKPVEAVMRSYRNRDNIPADIAAIVSSKFTFSVTMAEASYRNPKKSYQVNSII”, the “soluble fraction (log2)” value came to 0.22. For “HMEETLLLRESVRSALAMLAPTLRITLEMYVYRQLSPTEIALRSGVSISMVRRRLGYGLYKLRTQLIDA”, the “soluble fraction (log2)” value was -0.394. Turning to “HMEFEIGQEDSKKSVKQFLYNTLRLSHGQVTALKRQERGILLNGERVFVTALLQEGDRLSLLLE”, the “soluble fraction (log2)” value is -1.24. On to “HMEFFIIDHNGQQAGPFSFDQLVQKGISPETLVWKQGMADWNPAWKVEELKAVLEAVEANQSNQKAQ”, for which the “soluble fraction (log2)” value is -1.3. Take “HMEFGEVLAQLRQKRHISQAELGRAIFVSGGTISNYEKGVHFPDVEKLLLLADYFNVTTDYLLGRT”: the “soluble fraction (log2)” value is -0.169. Take “HMEFNQAVQDVNELSMQYAKSDVLWPEFEPKVLAFAKNELSQMPPNQWKFALQTFYNGLKQAA”: the “soluble fraction (log2)” value was -0.0767.

Consider “HMEFPLSPHQYSVLRLMAQGLSNKQIAERLFLSENTVKGYVQEVLRRLGARNRLEAVMIANRRGWL”, for which the “soluble fraction (log2)” value is -0.606.

On to “HMEFPYISGVDVGTISNKEFARFETTKASDIVIALDKSGIPFSARFGDSEIVLTYDGSYKEEVEEIIAKV”, for which the “soluble fraction (log2)” value was -0.115. As for “HMEFSYMDQGLERYRAFLETHGHGNVPESYHELKLVNFVAHIRKLYRMNLLSEERRRALDEAGFVF”, the figure is -1.24. Regarding “HMEFVEERRNRMLDYIGENKRADVPELARHFDVTEVTIRRDLLILEQDGKLIRTHGGAMINR”, the “soluble fraction (log2)” value was -0.278. As for “HMEGDKEIPNVIGKSINDAKKILEQAGLKLGEVKKVNDSSVAKNVVLSTNPNAGTKVSAGDAVSITVAEG”, the figure is 0.278. As for “HMEGGLIMDRIEKGLQSGVMPDLRGLNLKDALYLLESYVQVQVIGSGGVIKQSIKTGDKFIMGSVIKLEL”, the figure is 0.041; as for “HMEGLATRLRFLRQARGLSYHALARLSGVTHTALHQIEAGKNIPGLDTAEKIAMALDVDPRWFAYGRGDPS”, -0.578. Regarding “HMEGPALKVWKARYLRAAILEQLLSDRWDDRGGQPIRVVVNEPTNSLLIRIPRHLWPEAEKLLQELDQR”, the “soluble fraction (log2)” value was -0.312. As for “HMEGTEILVNIRKGMTKEEIASLLVSKGLVEDKNTFLVQTALYTSDRYPIQPGSYTLNTAQTPEEMLAVMT”, the figure is -0.073; as for “HMEGVNLTVQEAKQMAAIIAPLLKQGQSPYQIVTNHPELGISEKTLYNYIENDVFHEIAGITVMDL”, -0.881; as for “HMEHIVNELDRKVIDYLQSHYDAKLNDIAQGIGVSKATATKSIRKLVQTGIVHVVGSSGTGTSYNLTE”, 0.0867.

For the sequence “HMEHVVFEVTESGELENNTAVKHVLNSFNNKSLNLAIDDFGTGYSNLRYIRDMMFGIIKIDRLFIKDINES”, the “soluble fraction (log2)” value was 0.158. Regarding “HMEIDFDKINSIFNDANKLYEEGDYFEANNLYKNIVSSNIISKDLYYNLGLSYAKIGSNGYAILWYERALN”, the “soluble fraction (log2)” value was -0.215. With “HMEIEEIDYGTFLQMVEDGVVEKIELTDTQIFLTSTVDNDDKVYTTGVMPDQDLTNRLIEAGVVNFGKVV”, the “soluble fraction (log2)” value is -0.956. Regarding “HMEIFSIEPDSYLGSGEEIASYYREGVTVIVNMAKLSDAESLRMVDFMSGLKLALLGNIKRITKHVYLLTP”, the “soluble fraction (log2)” value is -0.966. As for “HMEIITIVSDINGKRIDAWLSEKLENYSRSFIQKLIQNENVKVNNNIVKANYKLKNGDAVAVSIPEPV”, the figure is -0.261; as for “HMEILNYVVSDGQSGIRIDRYLSDSNEDLSRSYIQKLLKEQKVTVQGTFVKANYKVQAGDVITVEVPDMA”, 0.238; as for “HMEILPAYRDIKKEALLGNINAEFKYVNLLLEHNYIEQAFNIIEDMKTRVDDNPEFEELKSRVADAYLMY”, -1.48. In the case of “HMEILTLEELKRLMAKAKLKQNQISGHAGVSKQQISMILAGKRNITKDVSDNLKANLAEYFP”, the “soluble fraction (log2)” value was 0.107. In the case of “HMEILVSTRRHEIASLLSRKKRVSFFELFPEKTKEYVVATFLAILEMAKAREVNITQEDTFDEIIVEEA”, the “soluble fraction (log2)” value was -1.09. For the sequence “HMEIPTPAELREKRIRMGLKQADVARMAGISQSMVARIESGSVDPRVSTLAKIVEVLQAAER”, the “soluble fraction (log2)” value is 0.185.

Consider “HMEISLEAKMAEVREQVRGLAGINFRTLLEMQASRSNIIVTFLAILELMKIGAIQIRQEEIFGEIIIDSRD”, for which the “soluble fraction (log2)” value was -0.28.

For the sequence “HMEISPGDVFKQLPGIGDDLSRRVVESLGIQSLEELESAAHDGRLEQVEGFGERRVQMVRAVLTGMLS”, the “soluble fraction (log2)” value was -1.04. As to “HMEITTEDIAAQVASWIVRLSEDLTSTDRAALQIEFEQWQQTDSRRAEIAHKMLSLIGQAEQLRKT”, the “soluble fraction (log2)” value was -0.614. As to “HMEKAISSLTLEEAKKRLEMVRSEKDASLQIYKETGSETARVTAENYGKEENSLLLHISEMSNIV”, the “soluble fraction (log2)” value is -0.209. With “HMEKFTGELSQEEKNVLDALSHEEMHVDIIIKLTKLETSAVSSTLSLLEIKGLIKNIGGQNYIK”, the “soluble fraction (log2)” value was -0.139.

With “HMEKIIFEISEEGKRLDLYIAERTELTRTRIQQLIKDGNINVNNKKSKPSYKVEKNDFIEMIIPDE”, the “soluble fraction (log2)” value is -0.49.

With “HMEKINLIIEEDNNLRLDKVIAMQLQELSRTQIQDMINQGLVLVNQKKEKASYKTKLNDEIEITILD”, the “soluble fraction (log2)” value was -0.382. “HMEKKDTYTVKNGDSLWGIARTELGDGGRFREIYTLNADTIEAEAKKRGRSSSSEGHWIYPGSVLRLP”: the “soluble fraction (log2)” value is -0.325. Take “HMEKKGTVVIATVKGDIHDIGKNIVKVLLENYGFDVIDLGKDVPPEAVVEAVQQSGARLVGLSALM”: the “soluble fraction (log2)” value was -0.577.

As for “HMEKKSKLVLAVLQGSDSDNTIRNLNERGFMVTVLSSTGGFLKKKSTTVMIGVEEDRLEEALDVLQKYAG”, the “soluble fraction (log2)” value was -0.617. As for “HMEKKTILIPPVITVRALAEISQIPVNRLLQELIKNGVFTSINEKIDFDTAVIIGADLNLDIQLL”, the “soluble fraction (log2)” value was -0.984. On to “HMEKLPRYILPGVPKVKSINISSALDGLVQDYSREFNISQKDIFQIALVEFFKKYGYHNAVKAVL”, for which the “soluble fraction (log2)” value was found to be 0.0067. As for “HMEKLSMLKIKELFRLAIEMNLSHRQIAQSLNVSHTVVNRYLKRFKKSNLSYETLLKLGDKEIISALYEH”, the “soluble fraction (log2)” value was -0.0551. In the case of “HMEKPAQDVLASHREWMGEMIKAEHMTAKQVWRLLRERADIGVSYPTVKRYLRAHFQFGGPS”, the “soluble fraction (log2)” value is 0.00611. Regarding “HMEKRLDYTFGLNKEQLLYLTKSIKDGDFYNVSFIDGTEKKLNRVGSTKEVHKYVNFLMTNDGIVKK”, the “soluble fraction (log2)” value came out at 0.0133. Turning to “HMEKSLKELAQGVGQKVLTSGRPYHFDPMSAMERRVVHMTLMEMDGLRTESEGEGRFRHVVVFPA”, the “soluble fraction (log2)” value was -0.208. As for “HMEKTEQMQVILDYIARYGEINNEKVQEILGVKRTRAYTILKQMVENGFVTTNGRGEEKKYYSIR”, the “soluble fraction (log2)” value is -0.33. For “HMEKTIQIYDNIIIKDFAEKMEVSPSQVITKLIGLGVMANLNQPIDINSAVIVGKEFGFNVESM”, the “soluble fraction (log2)” value is -0.952. As for “HMEKVLPFEFERKFKTNHTAWDFFSNQAPPSYRKTVIHWILSAKQEITRISRLEKLIAASEQQKRI”, the figure is -0.31. With “HMEKYIVNQEEQGKRLDIYVVNKSSELTRTAVQRLIEQEHILVNGRKQKASYKVLEGDIITIERV”, the “soluble fraction (log2)” value was -0.649. In the case of “HMEKYTDDLEIAAEIARLETLMEGNGRVLIRPSGTEPLVRVMIEGNDIEQITKLAEDLAALLNKRF”, the “soluble fraction (log2)” value was -0.842. With “HMELDFNSVYRQLNHEQKQAYQSIKSVLEQKISGSELDKKLKQAQQAFVAKFKENPNFEVPK”, the “soluble fraction (log2)” value turned out to be 0.22. On to “HMELDIGKKAIVIEKIDPEAGTGRVRIEGVDWGAKTADSSVIEKGETVVVKAKGAAFVTVAK”, for which the “soluble fraction (log2)” value was 0.0671.

With “HMELEAFPNPTDMFLSFTTKEKTPLAIYDINGKQVLYVEQITSSSKINVSKLSEGVYFAKTNQGTVKWVK”, the “soluble fraction (log2)” value was -0.46.

Regarding “HMELEQLKSQLTGFLKANREQIFTAQNLADGLRMTDSQGYKQVVNALNASVRDGDVIDIKNGYQYNKN”, the “soluble fraction (log2)” value was -0.0153. In the case of “HMELEWENYSLAGEIKTTVMLYQNRRNGLPEEAKQKADALMKQLKQAVIENDAQKVEKIDDALTALLFE” it was -0.249; in that of “HMELGYTPNNLRSVRAKYGLTQKQVAEITGLKTWHPVNRWEAPVEAAYHADMPHTKWLKLLDELSSR”, -0.0144. As for “HMELKYIDYDEALVVYAKTVTASGGGLSGVKDEGGIRKVLDFVQNDLYYPTFVDKLTYLVFGL”, the figure is -0.155; as for “HMELLPAERRQQLVDWFKSNQAGTSQDLARMFGISVSTIRRDLDLLASEGLVKRTHGGAVSIR”, 0.2; as for “HMELLPFEFARANRVLLRVNESDLVVSPDANHSAVTEILRLNNNIETIKSVDAEAFDKILSSIYSG”, -2. “HMELLSVPSRLGTFFLGGEAGHIIRLYLPGDPTPRIAEHETPVLSEARRQLLEYLAGRRTAFSFPL”: the “soluble fraction (log2)” value was -0.223. In the case of “HMELNEIEFENLKESIIIHLEKESLSPHELVKHIQTIHPDKVTAVIQWMLENGFIKTDAGGQLTLVSK”, the “soluble fraction (log2)” value is -0.485. For the sequence “HMELNELTSRELMVAEQVARGASNREISEALSISERTVKAHLSAAFEKLGVRDRVQLALAMNNIPT”, the “soluble fraction (log2)” value is -0.886.

With “HMELNKNDLKIIKNISHIYPYFTPVKILQLILSKKFKTIDYNKILKSTSILTTDRSHLYYILNN”, the “soluble fraction (log2)” value turned out to be 0.22.

Take “HMELPSDEHLDDISHLARIGHKKGLQEKIIQLEQQGLASAEFIQQLKTLTNNFQFEKIIQWVDSEL”: the “soluble fraction (log2)” value is -0.848.
